Data on 16 sequences can be found in a protein production outcome set (Wang et al. 2014).

A short description of this series: label from the status in PepcDB records.
Turning to “MEKTVIYLLEDGYVDFVVEKIRTKMEKLLEEKDKIFVVLAGGRTPLPVYEKLAEQKFPWNRIHFFLSDERYVPLDSDQSNFRNINEVLFSRAKIPSGNVHYVDTSLPIEKACEKYEREIRSATDQFDLAILGMGPDGHVASIFDLETGNKDNLVTFTDPSGDPKVPRVTLTFRALNTSLYVLFLIRGKEKINRLTEILKDTPLPAYFVRGKEKTVWFVGK”, the protein production entry is given as “not failed”. The result for “MEKVAFIGLGAMGYPMAGHLARRFPTLVWNRTFEKALRHQEEFGSEAVPLERVAEARVIFTCLPTTREVYEVAEALYPYLREGTYWVDATSGEPEASRRLAERLREKGVTYLDAPVSGGTSGAEAGTLTVMLGGPEEAVERVRPFLAYAKKVVHVGPVGAGHAVKAINNALLAVNLWAAGEGLLALVKQGVSAEKALEVINASSGRSNATENLIPQRVLTRAFPKTFALGLLVKDLGIAMGVLDGEKAPSPLLRLAREVYEMAKRELGPDADHVEALRLLERWGGVEIR” reads “not failed”; that for “MEKYNSLSDFLKEFYIPTYVLSAETEEEEEEESRPTPASPVLVFINSKSGGQLGGELILTYRSLLNHNQVFDLDQETPDKVLRRIYLNLERLKDDDFARQIREKLKIIVAGGDGTAGWLLGVVCDLKLSHPPPIATVPLGTGNNLPFAFGWGKKNPGTDRTAVESFLEQVLKAKVMKIDNWHILMRMKTPKEGGSCDPVAPLELPHSLHAFHRVSPTDELNKEGCHTFRGGFWNYFSLGMDAQISYAFHSERKLHPEKFKNQLVNQSTYVKLGCTQGWFCASLFHPASRNIAQLAKVKIATRNGQWQDLHIPHSIRSIVCLNLPSFSGGLNPWGTPNPRKQRDRGLTPPFVDDGLIEVVGFRNAWHGLVLLAPNGHGTRLAQANRIRFEFHKGATDHTFMRMDGEPWKQPLPLDDETVMVEISHLGQVNMLATHDCRSRSVFDPSTPRHQDGAEDYDDNEDDSVAEGEEFRKFGAADTFKIPDEGEHSNKKGRASRRRNSNVHGWSHVL”, “not failed”. The result for “MEKYPEIQQMRSKMREGDDTNEFKIRPLKGLSHPSGNLQMQRFQEDRRERIHSIRKRENQDGRLDLIGVVGEITVVIDDVVYEEEKLRKVVFTMKG” reads “not failed”; that for “MEKYQNLLVVIDPNQDDQPALRRAVYIVQRNGGRIKAFLPVYDLSYDMTTLLSPDERNAMRKGVINQKTAWIKQQARYYLEAGIQIDIKVIWHNRPYEAIIEEVITDKHDLLIKMAHQHDKLGSLIFTPLDWQLLRKCPAPVWMVKDKEWPEYGTIVVAANLSNEESYHDALNLKLIELTNDLSHRIQKDPDVHLLSAYPVAPINIAIELPDFDPNLYNNALRGQHLIAMKELRQKFSIPEEKTHVKEGLPEQVIPQVCEELNAGIVVLGILGRTGLSAAFLGNTAEQLIDHIKCDLLAIKPDGFTCPITVDSDNE”, “not failed”; that for “MELAAILFSMFFAMNIGASGAAASMGIAYGSEAVKKKFHALLICAAGVLSGAVIGGGNVVKTISSGIIPERVISLEIVCIIIGSAALSLFIANVLGIPLSTSEVTVGSVVGVGVAYQVLYVKSLLVIVSFWVIVPIVAFAFTFAMAKIMKKTIKRPASGKKAKVLAVILLITGFFEAFSAGMNNVANAVGPLVAAHVLTVGEGTLYGGLFVALGALLLGRRVLETNGKKITRFSKGEGIILSGTGAGLVITSSIFGLPVPLAQVTSSSIIGMGMAKNGGNVFHKQVVKTMLKVWVVSPFLSLSLSYMLVSLLLKGDYYALIVVTSVLLASVGTISLMRAVKKEHSSVHEQGGGI”, “failed”. Under “MELANKMLHALEHEDMALAKKYFDEVVQAGTDEEQYYLAEELFALGFLDETEDLYELLLAKYKDEGELLVRAAEVALEKDDMDAAQDYLEKVNKEDEAYIESLLVLADLYQMQGLFEVSEQKLLEAKQMAPNEPIIDFALGEYYLSQARFASAVQSYQTAVEAGLTIISNGAVSVYERIAEAFAASGAFEEALPYYERALEDKESVDTLFGMGLTAYQAKDYTKAIHALEHLREHDPSYTTLYSYLAKSYEENGEPEKAIAVLRDGLTQDEFNKEMFLEAGKLAVTLRLPEEAEEFYRQAIVLDEEFSEAIMQLNKLLLAKENYEGVIELVEGLGEEVISEPQIFWDVSVAYQETEQYNKAKANYELAYPHFTNNPTFLKEYGLFLREEGEHAKSQEVLRSYLELEPEDTEILSLFD” stands “failed”. In the case of “MELAVHDATEDGAGYATAASSWVVVEPEFVVDVTDIRSFVQCPRLYYLNKLSGLPLKYPVTKGTIVHEVFGDLLRGRDLEASVAQRVDEAGLELGLLGRSRAEVEADVRDNASAIEGWLQQGRLTDEDEWRSEYTLVSERFGIKGRCDAIRRGMPVELKTGKNTNREPRFHDKVQAACYALMLDEHGVPADTGTLLYTKNAAVDRSEASGDLSPAKEFSIGRGFLEFVVRERNHLAALEASDGPPTGYEADAKCDYCFEQDTCMVVSGRLDQESKAGRIGDPVPAEERAYFDELYDAIEAERGAIHDEYRKLWEQSPDERAADDRAVVGLSPAEQTELPDGRWRLTATRPGSAASKIREGDRVLASDGDPVAGRAEMARVERLDADRVEVTTDEPVSLCRLDVYPSELSVDRMLTALHDAVLKSDQRRTDLLFDRASPRFEGGDHDLIPNNDAQNAAVNRALNAEDFALVHGPPGTGKTYTIATLVQAFVARGDRVLVSAFTNRAVDNALDALRQQGHEDIVRVGTETGVRADMQDLRLDRSGDPGERAAALRSAPVVAATTATCGSRILRELEFDVVLVDEASQLTEPDTLAAINRGARFVLVGDHEQLPPVVRSGGRLSKSLFERLHETYPEASVMLDQQYRMSQRIQAFSSREFYDGQLRPASSEVAGQRLTDVGVDPGGAVHGGVTFYDVPGTDDAHVDPAEADRVADVVTAYVDAGLDPGEIGVIAPFRAQVAEIGRRTPAGVAVDTVDRFQGSSKEVIVVSFVARGTLEGPIFEDHRRVNVALSRAKKSLVLVGDERALRSEPLYDRMIDWADMELEHHHHHH”, the protein production entry is “failed”.

With “MELFTLGACRQVGKSCFVLKTSEGLVMLDCGLHPSYQDDRRYPNFSLAFSYGPLKAVFITHCHADHVGALPILTERWGYDGPIYMSEPTRKLSYYILEECVGSWGGDDEWTDSSRSEWSYTQREVESCLTKVTIMEPGQSISVGENVQVHSWMAGHVLGAYMFSIVVDNHRILYTGDFTSCPTFHLPPARVDDIPYPPDVILSEATYATSFKDGRLNNQVEFIQNVLDCLLDGGKVLVPVFAIGRAQELLLLLGK”, the protein production result is “not failed”. The result for “MELKTAADSNFSESEESPETKGIRILEGDPKKAIIKLAVPMIVAMSVQTLYQLIDTFWVSGLGADALAAMGFVFPFYFISMALSNGLGIGGGAAISRKIGARDKAGADNVAVHTIIIMMLLVLIFTIPFYVFAPHIFSLVGAGKTTDLAVAYARVIFLGSIVIFFTNVANSILRSEGDSKRAMYAMVLGAALNIVIDPIFIYTFKMGIAGAAWATLLSLAVSSAMMLNWLFFKKDTFVSFDFKDFSFEKSIINDIFRIAVPASAQQLSMSLSMLVLNLIIVNVSSTDGVAVYSTGWRVATIAIAPLVGIATAVVSVSGAAFGAKDFEKAKTAHTYAVKVGLLIEGGVAAFTFIFAPQIAAVFTQTEEAAHIAPDLIQFLRIICIFYPTVSLGMLSTSLFQGAGKGFSALTANLLRTIVFTPLFAAFFAFNLNMGQVGAWWGIVAGNAIGAGVVYVWVKLYLSTILKTGPLHKPFEQGI” reads “failed”; that for “MELLCHEVDPVRRAVRDRNLLRDDRVLQNLLTIEERYLPQCSYFKCVQKDIQPYMRRMVATWMLEVCEEQKCEEEVFPLAMNYLDRFLAGVPTPKSHLQLLGAVCMFLASKLKETSPLTAEKLCIYTDNSIKPQELLEWELVVLGKLKWNLAAVTPHDFIEHILRKLPQQREKLSLIRKHAQTFIALCATDFKFAMYPPSMIATGSVGAAICGLQQDEEVSSLTCDALTELLAKITNTDVDCLKACQEQIEAVLLNSLQQYRQDQRDGSKSEDELDQASTPTDVRDIDL”, “not failed”; that for “MELLIRTEQLLLQNEKNWELYLSNREEEKPFDFYKDMKPFVDEAKRCADDFLELAIPWVNTERPPYLGELQLRQACDNVQMTAVSAFNGRSFYKHFLDHYQSTKYTLTRVRDFLKRKEESM”, “not failed”. The result for “MELLKEYNPYLEYRDGELFIEGVSLKELAQTFGTPLYVYSSNFIKERFEAYRKAFPDALICYAVKANFNPHLVKLLGELGAGADIVSGGELYLAKKAGIPPERIVYAGVGKTEKELTDAVDSEILMFNVESRQELDVLNEIAGKLGKKARIAIRVNPDVDPKTHPYIATGMQKSKFGVDIREAQKEYEYASKLENLEIVGIHCHIGSQILDISPYREAVEKVVSLYESLTQKGFDIKYLDIGGGLGIKYKPEDKEPAPQDLADLLKDLLENVKAKIILEPGRSIMGNAGILITQVQFLKDKGSKHFIIVDAGMNDLIRPSIYNAYHHIIPVETKERKKVVADIVGPICETGDFLALDREIEEVQRGEYLAVLSAGAYGFAMSSHYNMRPRAAEVLVENGSVKLIRKRENYDYIVEPSLDI” reads “not failed”; that for “MELNQPPLPTEIDGDAYHKPSFNDLGLKESVLKSVYEAGFTSPSPIQEKAIPAVLQGRDVIAQAQTGTGKTAAFALPIINNLKNNHTIEALVITPTRELAMQISDEIFKLGKHTRTKTVCVYGGQSVKKQCEFIKKNPQVMIATPGRLLDHLKNERIHKFVPKVVVLDESDEMLDMGFLDDIEEIFDYLPSEAQILLFSATMPEPIKRLADKILENPIKIHIAPSNITNTDITQRFYVINEHERAEAIMRLLDTQAPKKSIVFTRTKKEADELHQFLASKNYKSTALHGDMDQRDRRSSIMAFKKNDADVLVATDVASRGLDISGVSHVFNYHLPLNTESYIHRIGRTGRAGKKGMAITLVTPLEYKELLRMQKEIDSEIELFEIPTINENQIIKTLHDAKVSEGIISLYEQLTEIFEPSQLVLKLLSLQFETSKIGLNQQEIDAIQNPKEKTPKPSNKKTPQHERARSFKKGQHRDRHPKTNHYSKKPKRR”, “failed”; that for “MELRIMTGKLILLGFIIYQCVFSESDNLPWLVFSLLVYVCINLGIAILPKGKTKKLFIIISVIISIVSYAEVHPLFILFLPFTLCEGAADFGLPKWAVLAASIVPVLFINESISAVYALTAAFQFLLYWAASHDAARIEKLEHHIDQTRRDLQKLTNMLRENKEFIRQSEYTYKLEERNRLSQEIHDKIGHSMTGALIQLEAAKRVLDIDKEKASELLQNAINISKDGIENIRLTLKSVKPPSEQMGIHRLRLFIDECSAQYHMNISFLHKGDLDVISQIQWKIIFENITEALTNSVKYAEATHVSICIHVLNTLIKAEVKDNGKGRQKIKKGMGIIGMEERAASVNGKVIVDGSNGFSVTTLLPKHE”, “failed”.

For “MELRTPGTKWSPQGIGSLRRVVWDYSTPEISLFSEEGLKGEQVKLTEALKNSQGLEKPLQVASATVSAGLWLLYPKPLFEDTPYILEPGEYPTSEAWGTSDPSVGSLKPMRLGCPSVEKPGEPRAVVYEAPGFQGRSWEVSRDIYNLQQPEDSQSPHLASVGSLRVLGGCWVGYEKEGFRGHQYLLEEGEYPDWSHWGGYDELLTSLRVIRTDFGDPAVVLFEAMDFEGHGVEVSKALPDVELVQHGPSTQAIHVLSGVWVAYQEVGFSGEQYVLEKGVYRNCEDWGAGNSTLASLQPVLQVGEHDLHFVSKIQLFSRPDFLGDHFSFEDDQAALPASFRPQSCRVHGGSWILFDETNFEGDQHILSEGEFPTLTAMGCLASTVLGSLQKVSLHFSEPSIFLYGLECFEGKEIELSREVRSLQAEGFNNHVLSVRIKGGIWVLCEHSDFRGRQWLVGSCEITNWLTYSGTQRVGSLYPIKQRRVYFRLWNAALGGFLAVPDHVEDMKAGRVVVADPQAGGSCIWYYEDGLLKNQMAPTMSLQVIGPPSPGSKVVLWAESRLPRQTWSISESGHICSQMFEGQILDVKGGRGYDRDHVVLWEPDEDRASQIWTIHVL”, the protein production result is “failed”.
